Consider 57 substances from patent publication US9994628B2, “Peptides and combination of peptides for use in immunotherapy against various tumors” (IMMATICS BIOTECHNOLOGIES GMBH, priority 2015, dated 2018).

The test concerns the target HLA-A*02:01 (Homo sapiens, UniProt P04439, D140Y/D185E/D98H/E176V/E277Q/G131W/G231S/I119V/I121R/I166T/I218V/L300P/L318F/N151K/N90K/P208A/P217A/Q86G/Q94H/R138H/R169H/T345S). The test can be described thus: MHC binding assay: UV-ligand exchange and β2m ELISA (peptide exchange yield, Table 7). The following applies: binding of HLA-class I restricted peptides to HLA-A*02:01, UV-ligand exchange. An excerpt: Candidate peptides for T cell based therapies according to the present invention were further tested for their MHC binding capacity (affinity). The individual peptide-MHC complexes were produced by UV-ligand exchange, where a UV-sensitive peptide is cleaved upon UV-irradiation, and exchanged with the peptide of interest as analyzed. Only peptide candidates that can effectively bind and stabilize the peptide-receptive MHC molecules prevent dissociation of the MHC complexes. To determine the yield of the exchange reaction, an ELISA was performed based on the detection of the light chain (β2 m) of stabilized MHC complexes. The assay was performed as generally described in Rodenko et al. (Rodenko et al., 2006).
96 well MAXISorp plates (NUNC) were coated over night with 2 ug/ml streptavidin in PBS at room temperature, washed 4× and blocked for 1 h at 37° C. in 2% BSA containing blocking buffer. Refolded HLA-A*02:01/MLA-001 monomers served as standards, covering the range of 15-500 ng/ml. Peptide-MHC monomers of the UV-exchange reaction were diluted 100 fold in blocking buffer. Samples were incubated for 1 h at 37° C., washed four times, incubated with 2 ug/ml HRP conjugated anti-β2 m for 1 h at 37° C., washed again and detected with TMB solution that is stopped with […]. Absorption was measured at 450 nm. Candidate peptides that show a high exchange yield (preferably higher than 50%, most preferred higher than 75%) are generally preferred for a generation and production of antibodies or fragments thereof, and/or T cell receptors or fragments thereof, as they show sufficient avidity to the MHC molecules and prevent dissociation of the MHC complexes.

As to “113 (FLFLKEVKV; listed as Homo sapiens) [compound 113]”, the “Peptide exchange (MHC class I binding score, peptide exchange yield)” value (shortened to “Peptide exchange”) is “++ (≥20% = ++)”. Then “105 (AMLASQTEA; listed as Homo sapiens) [compound 105]”, with “++ (≥20% = ++)”. As for “49 (KLIGNIHGNEV; listed as Homo sapiens) [compound 49]”, the entry is “++ (≥20% = ++)”.

With “158 (YLDPLWHQL; listed as Homo sapiens) [compound 158]”, the “Peptide exchange” value is given as “+++ (≥50% = +++)”. Then “9 (SLITGQDLLSV; listed as Homo sapiens) [compound 9]”, with “+++ (≥50% = +++)”.

With “192 (TLLPSSGLVTL; listed as Homo sapiens) [compound 192]”, the “Peptide exchange” value is “++ (≥20% = ++)”. Then “147 (GLLSALENV; listed as Homo sapiens) [compound 147]”, with “+++ (≥50% = +++)”. As for “31 (GLLETTGLLAT; listed as Homo sapiens) [compound 31]”, the entry is “+++ (≥50% = +++)”; as for “154 (AIIKEIQTV; listed as Homo sapiens) [compound 154]”, “++ (≥20% = ++)”; as for “179 (TLGEIIKGV; listed as Homo sapiens) [compound 179]”, “+++ (≥50% = +++)”.

As to “215 (QIADIVTSV; listed as Homo sapiens) [compound 215]”, the “Peptide exchange” value is on record as “++ (≥20% = ++)”.

Regarding “233 (SLFESLEYL; listed as Homo sapiens) [compound 233]”, the “Peptide exchange” value was “+++ (≥50% = +++)”. As for “16 (SLADLSLLL; listed as Homo sapiens) [compound 16]”, the entry is “+++ (≥50% = +++)”; as for “59 (ALADGIKSFLL; listed as Homo sapiens) [compound 59]”, “+++ (≥50% = +++)”; as for “281 (LLLESDPKVYSL; listed as Homo sapiens) [compound 281]”, “++ (≥20% = ++)”. Then “27 (GLLGKVTSV; listed as Homo sapiens) [compound 27]”, with “+++ (≥50% = +++)”.

In the case of “35 (VIIKGLEEI; listed as Homo sapiens) [compound 35]”, the “Peptide exchange” value was “++ (≥20% = ++)”. As for “116 (ALLSSVAEA; listed as Homo sapiens) [compound 116]”, the entry is “++ (≥20% = ++)”.

Take “112 (ILAQDVAQL; listed as Homo sapiens) [compound 112]”: the “Peptide exchange” value is listed as “+++ (≥50% = +++)”. As for “182 (GLQDGFQITV; listed as Homo sapiens) [compound 182]”, the entry is “+++ (≥50% = +++)”; as for “17 (GLLPSAESIKL; listed as Homo sapiens) [compound 17]”, “++++ (≥75% = ++++)”. Then “218 (SLTGANITV; listed as Homo sapiens) [compound 218]”, with “+++ (≥50% = +++)”. “265 (FLLDKPQDLSI; listed as Homo sapiens) [compound 265]”: the “Peptide exchange” value was “+++ (≥50% = +++)”. As for “268 (SLDKDIVAL; listed as Homo sapiens) [compound 268]”, the entry is “++ (≥20% = ++)”. Then “3 (RVIDDSLVVGV; listed as Homo sapiens) [compound 3]”, with “+++ (≥50% = +++)”; and “246 (ALAGIVTNV; listed as Homo sapiens) [compound 246]”, with “+++ (≥50% = +++)”; and “194 (KLLEEVQLL; listed as Homo sapiens) [compound 194]”, with “++ (≥20% = ++)”. For “81 (ILAEEPIYI; listed as Homo sapiens) [compound 81]”, the “Peptide exchange” value was “++ (≥20% = ++)”. As for “68 (QLMNLIRSV; listed as Homo sapiens) [compound 68]”, the entry is “+++ (≥50% = +++)”.

“136 (LLWDAPAKC; listed as Homo sapiens) [compound 136]”: the “Peptide exchange” value is recorded as “+++ (≥50% = +++)”. As for “244 (NVAEIVIHI; listed as Homo sapiens) [compound 244]”, the entry is “+++ (≥50% = +++)”.

Consider “123 (QTAPEEAFIKL; listed as Homo sapiens) [compound 123]”, for which the “Peptide exchange” value is “+ (≥10% = +)”. Turning to “119 (SLIEESEEL; listed as Homo sapiens) [compound 119]”, the “Peptide exchange” value is recorded as “++ (≥20% = ++)”. In the case of “235 (SLLNQPKAV; listed as Homo sapiens) [compound 235]”, the “Peptide exchange” value is recorded as “++ (≥20% = ++)”. For the substance “227 (SEMEELPSV; listed as Homo sapiens) [compound 227]”, the “Peptide exchange” value is given as “+ (≥10% = +)”. Then “26 (VLDGKVAVV; listed as Homo sapiens) [compound 26]”, with “+++ (≥50% = +++)”; and “69 (LKVLKADVVL; listed as Homo sapiens) [compound 69]”, with “++ (≥20% = ++)”; and “164 (MLIIRVPSV; listed as Homo sapiens) [compound 164]”, with “+++ (≥50% = +++)”.

In the case of “140 (FLDSQITTV; listed as Homo sapiens) [compound 140]”, the “Peptide exchange” value is “+++ (≥50% = +++)”. As for “130 (QLYGSAITL; listed as Homo sapiens) [compound 130]”, the entry is “+++ (≥50% = +++)”. As for “21 (YLMDDFSSL; listed as Homo sapiens) [compound 21]”, the entry is “+++ (≥50% = +++)”; as for “62 (SLVENIHVL; listed as Homo sapiens) [compound 62]”, “+++ (≥50% = +++)”; as for “6 (FLNAIETAL; listed as Homo sapiens) [compound 6]”, “++++ (≥75% = ++++)”. For “139 (IILENIQSL; listed as Homo sapiens) [compound 139]”, the “Peptide exchange” value was “+++ (≥50% = +++)”. On to “210 (GLAGDNIYL; listed as Homo sapiens) [compound 210]”, for which the “Peptide exchange” value was “+++ (≥50% = +++)”.

With “131 (SLYPHFTLL; listed as Homo sapiens) [compound 131]”, the “Peptide exchange” value is “+++ (≥50% = +++)”. As for “29 (KMISAIPTL; listed as Homo sapiens) [compound 29]”, the entry is “++ (≥20% = ++)”; as for “221 (IMLNSVEEI; listed as Homo sapiens) [compound 221]”, “++ (≥20% = ++)”; as for “18 (KTASINQNV; listed as Homo sapiens) [compound 18]”, “++ (≥20% = ++)”. Then “109 (ILGSFELQL; listed as Homo sapiens) [compound 109]”, with “+++ (≥50% = +++)”; and “142 (LLDAAHASI; listed as Homo sapiens) [compound 142]”, with “++ (≥20% = ++)”; and “44 (AVFNLVHVV; listed as Homo sapiens) [compound 44]”, with “+++ (≥50% = +++)”.

“162 (GLLGNLLTSL; listed as Homo sapiens) [compound 162]”: the “Peptide exchange” value is “+++ (≥50% = +++)”.

As to “70 (GLTEKTVLV; listed as Homo sapiens) [compound 70]”, the “Peptide exchange” value is “++ (≥20% = ++)”.

As to “114 (LLFPSDVQTL; listed as Homo sapiens) [compound 114]”, the “Peptide exchange” value is “++ (≥20% = ++)”. As to “163 (GLEERLYTA; listed as Homo sapiens) [compound 163]”, the “Peptide exchange” value is “++ (≥20% = ++)”.

“220 (ALSELERVL; listed as Homo sapiens) [compound 220]”: the “Peptide exchange” value was “+++ (≥50% = +++)”.
